Results reported in the PETadex activity labels (doi:10.1007/s12010-013-0219-x).

Legend:
[1] = substrate: pNPB; assay: Proxy for plastic degradation [Relative activity]
[2] = substrate: pNPB; assay: Proxy for plastic degradation [kcat/Km (catalytic efficiency)] (µM⁻¹s⁻¹); conditions: pH 8
[3] = substrate: pNPB; assay: Proxy for plastic degradation [p-nitrophenol (pNP) release] (% relative activity); conditions: pH 8

Protein	Proxy for plastic degradation ([1]; pH 5) [%]	Proxy for plastic degradation ([1]; pH 6) [%]	Proxy for plastic degradation ([1]; pH 6.8) [%]	Proxy for plastic degradation ([1]; pH 7.5) [%]	Proxy for plastic degradation ([1]; pH 9) [%]	Proxy for plastic degradation [2]	Proxy for plastic degradation ([3]; 25 °C)	Proxy for plastic degradation ([3]; 30 °C)	Proxy for plastic degradation ([3]; 37 °C)	Proxy for plastic degradation ([3]; 40 °C)	Proxy for plastic degradation ([3]; 45 °C)	Proxy for plastic degradation ([3]; 50 °C)	Proxy for plastic degradation ([3]; 55 °C)	Proxy for plastic degradation ([3]; 60 °C)	Proxy for plastic degradation ([3]; 70 °C)	Proxy for plastic degradation ([3]; 80 °C)	Proxy for plastic degradation ([3]; 15 h)	Proxy for plastic degradation ([3]; 30 h)	Proxy for plastic degradation ([3]; 40 h)	also measured
unnamed (protein) MPPHAARPGPAQNRRGRAMAVITPRRERSSLLSRALRFTAAAATALVTAVSLAAPAHAANPYERGPNPTDALLEARSGPFSVSEERASRFGADGFGGGTIYYPRENNTYGAVAISPGYTGTQASVAWLGERIASHGFVVITIDTNTTLDQPDSRARQLNAALDYMINDASSAVRSRIDSSRLAVMGHSMGGGGTLRLASQRPDLKAAIPLTPWHLNKNWSSVRVPTLIIGADLDTIAPVLTHARPFYNSLPTSISKAYLELDGATHFAPNIPNKIIGKYSVAWLKRFVDNDTRYTQFLCPGPRDGLFGEVEEYRSTCPF	35	60	75	90	75	1.35	31	37.5	45	70.5	75	95.5	100	93.5	74	67.5	98	50	40	Proxy for plastic degradation ([3]; 0 h): 100
unnamed (protein) MAVMTPRRERSSLLSRALQVTAAAATALVTAVSLAAPAHAANPYERGPNPTDALLEASSGPFSVSEENVSRLSASGFGGGTIYYPRENNTYGAVAISPGYTGTEASIAWLGERIASHGFVVITIDTITTLDQPDSRAEQLNAALNHMINRASSTVRSRIDSSRLAVMGHSMGGGGTLRLASQRPDLKAAIPLTPWHLNKNWSSVTVPTLIIGADLDTIAPVATHAKPFYNSLPSSISKAYLELDGATHFAPNIPNKIIGKYSVAWLKRFVDNDTRYTQFLCPGPRDGLFGEVEEYRSTCPF	30	59	75	92	75	2.84	29	35.5	51	68.5	80.5	93.5	100	91.5	79	67	93	47	38	Proxy for plastic degradation ([1]; pH 8): 100%; Proxy for plastic degradation ([1]; pH 8, 25 °C): 29%; Proxy for plastic degradation ([1]; pH 8, 30 °C): 35%; Proxy for plastic degradation ([1]; pH 8, 37 °C): 50%; Proxy for plastic degradation ([1]; pH 8, 40 °C): 69%; Proxy for plastic degradation ([1]; pH 8, 45 °C): 80%; Proxy for plastic degradation ([1]; pH 8, 50 °C): 93%; Proxy for plastic degradation ([1]; pH 8, 55 °C): 100%; Proxy for plastic degradation ([1]; pH 8, 60 °C): 92%; Proxy for plastic degradation ([1]; pH 8, 70 °C): 78%; Proxy for plastic degradation ([1]; pH 8, 80 °C): 65%
